Measured values taken from patent US20150232560A1 (Hoffmann-La Roche, published 2015).
Several values for one entry are separate records, joined by “and”; a condition that tells them apart may be missing. Identical values can stand only once. Each block holds one binder with its values, some of them ahead of it.

Assays:
[1] = target: T1, IGF-1R(1340-1366)[1346-pTyr]amid (phosphotyrosine at 1346; C-terminal amide); assay: SPR (BIAcore 3000), ss-FABs hybridized on biotinylated T40-Bi linker on SA chip, peptide in solution; T40-Bi linker (linker 10)
T1 construct: Used as the analyte free in solution; also called pIGF-1R peptide (free in solution); phosphorylated IGF-1R peptide
T1 peptide: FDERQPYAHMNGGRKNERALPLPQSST

[2] = target: T1, IGF-1R(1340-1366)[1346-pTyr]amid; assay: SPR (BIAcore 3000, SA sensor, 25 C): ss-FABs hybridized on the surface-captured biotinylated T40-Bi ss-DNA linker; peptide as analyte in solution
From the text: (§1) FIG. 17 Schematic drawing of the BIAcore assay, presenting the complex s on the sensor surface. On Flow Cell 1 (=FC1) (not shown) amino-PEO-biotin was captured. On FC2, FC3 and FC4 bivalent binding agents with increasing linker length were immobilized. Analyte 1: IGF-1R-peptide containing the M-1.4.168 ss-FAB epitope (thin line)-the M-8.1.2 ss-FAB phospho-epitope is not present, because this peptide is not phosphorylated; analyte 2: pIGF-1R peptide containing the M-8.1.2 ss-FAB phospho-epitope (P) and the M-1.4.168 ss-FAB epitope (thin line). Analyte 3: pINR peptide, containing the cross reacting M-8.1.2 ss-FAB phospho-epitope, but not the epitope for M-1.4.168.
(§2) The dissociation was monitored at 50 μl/min for 5.3 min. The system was regenerated after each concentration step with a 12 sec pulse of 250 mM NaOH and was reloaded with ss-FAB ligand.

IGF-1R(1340-1366)amid [3] = target: T2, IGF-1R(1340-1366)amid (C-terminal amide); assay: as above
T2 construct: Used as the analyte free in solution; also called IGF-1R peptide (free in solution); non-phosphorylated IGF-1R peptide
T2 peptide: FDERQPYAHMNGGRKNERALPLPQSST
From the text: as §1, §2

[4] = target: T3, INR(1355-1382)[1361-pTyr]amid (human, phosphotyrosine at 1361; C-terminal amide); assay: SPR (BIAcore 3000, SA sensor, 25 C): single ss-FAB hybridized on the surface-captured biotinylated T40-Bi ss-DNA linker; peptide as analyte in solution
T3 construct: Used as the analyte free in solution; also called pINR peptide; phosphorylated insulin receptor peptide (free in solution)
T3 peptide: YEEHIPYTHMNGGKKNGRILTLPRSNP

[5] = target: T1, IGF-1R(1340-1366)[1346-pTyr]amid; assay: SPR (BIAcore 3000), ss-FABs hybridized on biotinylated T0 linker on SA chip, peptide in solution; T0 linker (no spacer; linker 16 as printed)
[6] = target: T1, IGF-1R(1340-1366)[1346-pTyr]amid; assay: SPR (BIAcore 3000, SA sensor, 25 C): ss-FABs hybridized on the surface-captured biotinylated T0-Bi ss-DNA linker; peptide as analyte in solution
IGF-1R(1340-1366)amid [7] = target: T2, IGF-1R(1340-1366)amid; assay: as above

Kd [1]: 0.01 nM
Kd [2]: 0.0125 nM
Kd (IGF-1R(1340-1366)amid [3]): 0.973 nM and 1 nM
t1/2 diss (IGF-1R(1340-1366)amid [3]): 4.3 min
B1: T40 dual binding agent: ss-FAB 8.1.2 and ss-FAB 1.4.168 on the biotinylated T40-Bi 77-mer ss-DNA-Linker (linker 10) (bispecific antibody, V domains shown)
VH 1: QCDVKLVESGGGLVKPGGSLKLSCAASGFTFSDYPMSWVRQTPEKRLEWVATITTGGTYTYYPDSIKGRFTISRDNAKNTLYLQMGSLQSEDAAMYYCTRVKTDLWWGLAYWGQGTLVTVSA
VL 1: QLVLTQSSSASFSLGASAKLTCTLSSQHSTYTIEWYQQQPLKPPKYVMELKKDGSHTTGDGIPDRFSGSSSGADRYLSISNIQPEDESIYICGVGDTIKEQFVYVFGGGTKVTVLG
VH 2: EVQLQQSGPALVKPGASVKMSCKASGFTFTSYVIHWVKQKPGQGLEWIGYLNPYNDNTKYNEKFKGKATLTSDRSSSTVYMEFSSLTSEDSAVYFCARRGIYAYDHYFDYWGQGTSLTVSS
VL 2: QIVLTQSPAIMSASPGEKVTLTCSASSSVNYMYWYQQKPGSSPRLLIYDTSNLASGVPVRFSGSGSVTSYSLTISRMEAEDAATYYCQQWSTYPLTFGAGTKLELK
modifications: ss-DNA on a hinge cysteine
notes: Assembled on the SA chip on the biotinylated linker T20-(Biotin-dT)-T20; also called T40-bi complex

binding result [4]: no binding
B2: ss-FAB' 1.4.168 (Fab, V domains shown)
VH: DVKLVESGGGLVKPGGSLKLSCAASGFTFSDYPMSWVRQTPEKRLEWVATITTGGTYTYYPDSIKGRFTISRDNAKNTLYLQMGSLQSEDAAMYYCTRVKTDLWWGLAYWGQGTLVTVSA
VL: QLVLTQSSSASFSLGASAKLTCTLSSQHSTYTIEWYQQQPLKPPKYVMELKKDGSHTTGDGIPDRFSGSSSGADRYLSISNIQPEDESIYICGVGDTIKEQFVYVFGGGTKVTVLG
modifications: 17mer ss-DNA comprising SEQ ID NO: 05 with fluorescein, coupled via maleimide to a cysteine of the FAB' hinge region
notes: FAB' made from the murine monoclonal antibody M-1.4.168 by pepsin cleavage and cysteamine reduction; the constant parts are not; also called ss-FAB 1.004.168; fluorescein-ss-FAB' 1.4.168

Kd [5]: 0.03 nM
Kd [6]: 0.0344 nM
Kd (IGF-1R(1340-1366)amid [7]): 1.2 nM and 1 nM
t1/2 diss (IGF-1R(1340-1366)amid [7]): 5 min
B3: T0 dual binding agent: ss-FAB 8.1.2 and ss-FAB 1.4.168 on the biotinylated T0-Bi 37-mer ss-DNA-Linker (linker 17) (bispecific antibody, V domains shown)
VH 1: QCDVKLVESGGGLVKPGGSLKLSCAASGFTFSDYPMSWVRQTPEKRLEWVATITTGGTYTYYPDSIKGRFTISRDNAKNTLYLQMGSLQSEDAAMYYCTRVKTDLWWGLAYWGQGTLVTVSA
VL 1: QLVLTQSSSASFSLGASAKLTCTLSSQHSTYTIEWYQQQPLKPPKYVMELKKDGSHTTGDGIPDRFSGSSSGADRYLSISNIQPEDESIYICGVGDTIKEQFVYVFGGGTKVTVLG
VH 2: EVQLQQSGPALVKPGASVKMSCKASGFTFTSYVIHWVKQKPGQGLEWIGYLNPYNDNTKYNEKFKGKATLTSDRSSSTVYMEFSSLTSEDSAVYFCARRGIYAYDHYFDYWGQGTSLTVSS
VL 2: QIVLTQSPAIMSASPGEKVTLTCSASSSVNYMYWYQQKPGSSPRLLIYDTSNLASGVPVRFSGSGSVTSYSLTISRMEAEDAATYYCQQWSTYPLTFGAGTKLELK
modifications: ss-DNA on a hinge cysteine
notes: The protein parts are the same in both cases
